In patent US20140275487A1 (VIB VZW, published 2014):

Target: T1, agonist-bound β2AR-356 reconstituted at high density into phospholipid vesicles (UniProt P07550 1-365)
T1 construct: Solid phase coated on Maxisorb plates for ELISA; also called purified receptor alone; reconstituted receptor alone
Experiment: ELISA on purified receptor alone

| Binder | binding result |
| --- | --- |
| Nanobody 37 (CA4437) (VHH, also called Nb37) VHH: QVQLQESGGGFVQAGGSLRLSCAASGSIFSKNTMAWFRQAPGKERELVAASPTGGSTAYKDSVKGRFTISRDSAKNTVLLQMNVLKPEDTAVYYCHLRQNNRGSWFHYWGQGTQVTVSS | no binding |
| Nanobody 41 (CA4441) (VHH, Tested as periplasmic extract in ELISA; also called Nb41) VHH: QVQLQESGGGLVQSGGSLRLSCVASGFRFSNFPMMWVRQAPGKGLEWVSLISIGGSTTNYADSVKGRFTISRDNAKNTLFLQMNSLKPEDTAVYYCAKYLGRLVPPTTEGQGTQVTVSS | no binding |
| Nanobody 33 (CA4433) (VHH, Tested as periplasmic extract in ELISA; also called Nb33) VHH: QVQLQESGGGLVQPGGSLRLSCAASGFTFSNYVMNWVRQAPGKGLEWVSDISNGGGTTSYASSVKGRFTISRDNAKNTLYLQMNGLKPADTAVYYCARCPAPFTNDCMDITSTTYAYRGQGTQVTVSS | no binding |

Further lines, results first:

| binding result | Binder |
| --- | --- |
| no binding | Nanobody 35 (CA4435) (VHH, Llama VHH raised against the BS2G cross-linked β2AR:Gs:BI167107 complex; expressed in E. coli periplasm; also called Nb35; NB35) VHH: QVQLQESGGGLVQPGGSLRLSCAASGFTFSNYKMNWVRQAPGKGLEWVSDISQSGASISYTGSVKGRFTISRDNAKNTLYLQMNSLKPEDTAVYYCARCPAPFTRDCFDVTSTTYAYRGQGTQVTVSS |
| no binding | Nanobody 36 (CA4436) (VHH, also called Nb36) VHH: QVQLQESGGGSVQAGGSLRLSCTVSGTIFSVTVMGWYRQAPGKQRELVAGFTNTRNTNYVDSVKGRFTISKDSAKNTMYLQMNSLKPEDTAVYYCNVRRWGGTNWNDYWGQGTQVTVSS |
| no binding | Nanobody 40 (CA4440) (VHH, Tested as periplasmic extract in ELISA; also called Nb40) VHH: QVQLQESGGGLVQAGGSLRLSCAVSGTIFDITPMGWYRQTPGKQREVVADLTSRGTTNYADSVKGRFTISRDNAKKMLYLQMNSLKSDDTGVYYCNVKRWGGIGWNDYWGQGTQVTVSS |
